Consider twelve molecules from patent US20250092134A1.

Where a chain is given by its changes, count along the chain named.

To fix the notation:
B1: 21G11A8 (antibody, V domains shown)
VH: EVQLQESGPDLKKPGETVKISCKASGYTFTTYGMNWVKQAPGKGLKWMGYLNTYSGVSTYADDFKGRFAFSLETSANTAYLQINNLRNDDTATYFCARWGNYGAMDYWGQGTSVTVSS
VL: DIKMTQSPLSLPVSLGDQASISCRSSQSIVRSNGFTYLEWYLQKPGQSPELLIYKVSNRFSGVPDRFSGSGSGTDFTLKISRVEAEDLGVYYCFQSSHVPRTFGGGTKLEIK
B2: 28D2E6 (antibody, IgG1, V domains shown)
VH: EVQLQESGPGLVKPSQSLSLTCSVTGYFISSGYYWKWIRQFPGNKLEWMGYISYDGSNNYNPSLKNRISITRDTSKNQFFLKLNSVTAEDTATYYCARGGGYVPVWGTGTTVTVSS
VL: B1 VL with K3Q, F35N, E50K
B3: 21G11D5 (antibody, V domains shown)
VH: B1 VH
VL: B1 VL with K3V
B4: 28B2A4 (antibody, IgG2a, V domains shown)
VH: EVQLQESGPELVKPGASVKMSCKASGYTFTDDNMHWVKQSHGKSLEWIGYINPNNNHTNYNQKFKGKATLTVNKSSSTAYMELRSLTSEDSAVYFCARSTVVPFYAMDYWGQGTSVTVSS
VL: DIQMTQSPASLSMAIGEKVTIRCITITDIDDDMNWYQQKPGEPPKLLFSEGNTLRPGVPSRFSSSGYGSDFAFTIENMLSEDVADYYCLQSDNLPLTFGGGTKLEIK
B5: 28B2F5 (antibody, IgG2a, V domains shown)
VH: B4 VH
VL: B4 VL with Q3K, G100A, I106L
B6: 20A9A9 (antibody, V domains shown)
VH: EVQLQESGPGLVQPSQSLSITCTVSGFSLTSYGVHWVRQSPGKGLEWLGIIWSAGGTDYNAAFISRLSISKDNSKSQIFFKLNSLHADDTAIYFCARGSFYDYGRLDYWGQGTTLTVSS
VL: DIVMTQSHRFMSTSVGDRVSITCKASQDVSTAVAWYQQKPGQSPKLLIYSSSYRYTGVPDRFTGSGSGTDFTFTISSVQAEDLAVYYCQQHYGTPYTFGGGTKLEIQ
B7: 28C9A5 (antibody, IgG2b, V domains shown)
VH: EVQLQESGAELVRPGTSVKMSCKASGYTFTHYWIDWTKQRPGHGLEWIGNIYPGGGYTNYNENFKGKATLTADKSSSTVFMQFSSLTSDDSAIYYCTRKGYYYGSDWYFDVWGTGTTVTVSS
VL: QIVLSQSPAIMSASPGEKVTMTCSASSSVSYMHWYQQKSGTSPKRWIYDTSKLASGVPARFSGSGSGTSYSLTISSMEAEDAATYYCQQWSSNPYTFGGGTKLEIK
B8: 28B2A2 (antibody, IgG2a, V domains shown)
VH: B4 VH
VL: B4 VL with Q3V, G100A, I106L
B9: 23A9B10 (antibody, V domains shown)
VH: B2 VH with F28S, S30T, K36N, P42L, S53T, N66D, K82N, A88T, E89D
VL: IQMTQSPAFLSVSPGERVSFSCRASQNIGTSIHWYQQRTNGSPRLLIKYASESISGIPSRFSGSGSGTDFTLSINSVESEDFADYYCHQSHNWPTTFGAGTKLELK
B10: 23A9F7 (antibody, V domains shown)
VH: B2 VH with F28S, S30T, K36N, P42L, S53T, N66D, K82N, A88T, E89D
VL: DVQMTQSPAFLSVSPGERVSFSCRASQNIGTSIHWYQQRTNGSPRLLIKYASESISGIPSRFSGSGSGTDFTLSINSVESEDFADYYCHQSHNWPTTFGAGTKLELK
B11: 23A9C10 (antibody, V domains shown)
VH: B2 VH with F28S, S30T, K36N, P42L, S53T, N66D, K82N, A88T, E89D
VL: B10 VL with V2I
B12: 28D2E8 (antibody, IgG1, V domains shown)
VH: B2 VH
VL: B1 VL with F35N, E50K

Sequence of HuTCR Vb17 × Va10.2 (SKW3_1) (human) (A0A075B6N1 22-114, chain 1 of 2): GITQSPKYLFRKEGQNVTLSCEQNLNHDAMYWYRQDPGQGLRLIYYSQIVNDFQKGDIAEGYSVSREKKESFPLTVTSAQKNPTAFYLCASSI
Sequence of HuTCR Vb17 × Va10.2 (SKW3_1) (human) (A0A087WT01 20-109, chain 2 of 2, further chain): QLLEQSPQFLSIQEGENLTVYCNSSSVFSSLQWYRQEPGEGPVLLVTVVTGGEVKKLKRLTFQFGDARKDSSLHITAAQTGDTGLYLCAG
Sequence of HuTCR Vb17 × Va12 (SKW3-2) (human) (A0A075B6N1 22-114): as the sequence (A0A075B6N1 22-114, chain 1 of 2) above

For the first assay, the target named is TCR Vβ17 on T cells of PBMCs. Description: cell-based or functional assay.
Sequence of TCR Vβ17 on T cells of PBMCs (A0A075B6N1 22-114): as the sequence (A0A075B6N1 22-114, chain 1 of 2) above
As for B1, the Proliferation (EC50, ug/ml) was more than 5 µg/mL.
The same measure, in the same setting: the figure for B2 is 0.3 µg/mL; for B3 it is 2 µg/mL; for B4 it is more than 5 µg/mL.
On to B5, for which the Proliferation (EC50, ug/ml) was determined as 0.7 µg/mL.
The same measure, in the same setting: the figure for B6 is more than 5 µg/mL; for B7 it is 0.9 µg/mL.

For the next assay, the target named is Vβ17 (on cells expressing Vβ17). Description: cell-based or functional assay.
Sequence of Vβ17 (on cells expressing Vβ17) (A0A075B6N1 22-114): as the sequence (A0A075B6N1 22-114, chain 1 of 2) above
B8 yielded a Cell Internalization (EC50) of less than 0.07 nM.
Take B4: the Cell Internalization (EC50) is less than 0.07 nM.
On the same count and under the same terms, under B5 stands less than 0.07 nM.

Another assay has as its target HuTCR Vb17 × Va10.2 (SKW3_1) (human). Description: flow cytometry on SKW3-1 cells.
As for B9, the MFI was determined as 10100 MFI.
On the same count and under the same terms, under B10 stands 8600 MFI; under B11, 7660 MFI; under B1, 48700 MFI.
As for B2, the MFI worked out at 38000 MFI.
The same measure, in the same setting: the figure for B12 is 43600 MFI; for B3 it is 47500 MFI; for B8 it is 77400 MFI.
Still for that read-out and setting: under B4 stands 45700 MFI.
On the same count and under the same terms, under B5 stands 81800 MFI; under B6, 39500 MFI.
Turning to B7, the MFI stood at 55200 MFI.

Another assay concerns the target HuTCR Vb17 × Va12 (SKW3-2) (human). In words: flow cytometry on SKW3-2 cells. (Flow cytometry measures light scatter and fluorescence of single cells or particles in a stream.)
In the case of B9, the MFI came out at 6600 MFI.
As to B10, the MFI was 3400 MFI.
Still for that read-out and setting: the figure for B11 is 3210 MFI; for B1 it is 38900 MFI.
Molecule B2 displayed an MFI of 53800 MFI.
Same read-out and setting: under B12 stands 50000 MFI; under B3, 56300 MFI.
The same measure, in the same setting: the figure for B8 is 36500 MFI; for B4 it is 53800 MFI; for B5 it is 36600 MFI.
Same read-out and setting: under B6 stands 43100 MFI; under B7, 56900 MFI.

For the next assay, the target named is HuTCR Vb7/9 × Va10.2 (SKW3-3) (human). In words: flow cytometry on SKW3-3 cells (no Vβ17).
B9: the MFI was determined as 507 MFI.
On the same count and under the same terms, the figure for B10 is 466 MFI; for B11 it is 458 MFI; for B1 it is 532 MFI.
Same read-out and setting: the figure for B2 is 441 MFI; for B12 it is 452 MFI; for B3 it is 427 MFI.
Same read-out and setting: under B8 stands 434 MFI.
For the molecule B4, the MFI was 472 MFI.
Same read-out and setting: the figure for B5 is 438 MFI; for B6 it is 448 MFI; for B7 it is 438 MFI.

For the next assay, the target named is TCR Vβ17 on T cells of PBMCs. In words: flow cytometry on PBMCs, percent of cells stained.
B9 gave a PBMC binding (%) of 2.74%.
B10 gave a PBMC binding (%) of 2.32%.
Turning to B11, the PBMC binding (%) is 3.2%.
The same measure, in the same setting: the figure for B1 is 2.96%; for B2 it is 3.27%.
The same measure, in the same setting: the figure for B12 is 3.3%; for B3 it is 3.06%.
In the case of B8, the PBMC binding (%) worked out at 3.13%.
On the same count and under the same terms, the figure for B4 is 2.97%; for B5 it is 3.2%; for B6 it is 2.7%.
On the same count and under the same terms, under B7 stands 3.27%.
